The record followed here is paper PMC11500612, “Differential effects of inosine monophosphate dehydrogenase (IMPDH/GuaB) inhibition in Acinetobacter baumannii and Escherichia coli” (Journal of Bacteriology, 2024).

The data set deals with the molecule itself. The experiment in a line: crystal structure.

B1: A. baumannii GuaB with CBS domain deletion protein (M1-G488_ΔM93-R201) (enzyme)
chain: MLTIVQEALTFDDVLLLPAYSTVLPKDVSLKTRLTRGIYLNIPLVSAAMDTVTESRMAIAMAQNGGIGILHKNMDIAAQAAEVRRVKKFEAGKAESYPNSCKDDLGRLRVGAAVGTGADTPSRVEALVEAGVDVIVVDTAHGHSAGVIERVRWVKQNFPQVQVIGGNIATGDAALALLDAGADAVKVGIGPGSICTTRIVAGIGMPQISAIDSVASALKDQIPLIADGGIRFSGDMAKAIGAGASTIMVGSLLAGTEEAPGEVEFFQGRYYKAYRGMGSLGAMAGATGSADRYFQDSKAGAEKLVPEGIEGRVPYKGPMGNIVHQMMGGLRSSMGYTGSAVIEDLRQNAKFVKITSAGMSESHVHDVTITKEAPNYRVG
notes: also called A. baumannii GuaBΔCBS; GuaB^Ab; source: expressed, purified, and crystallized as described (28)
Consider B1, for which the binding result was “binds”.
